Source: PMC1557824

T1: PpZTA1 (zeta crystallin / quinone oxidoreductase), recombinant (Pichia pastoris, UniProt F2QTB9 1-336)
T1 sequence: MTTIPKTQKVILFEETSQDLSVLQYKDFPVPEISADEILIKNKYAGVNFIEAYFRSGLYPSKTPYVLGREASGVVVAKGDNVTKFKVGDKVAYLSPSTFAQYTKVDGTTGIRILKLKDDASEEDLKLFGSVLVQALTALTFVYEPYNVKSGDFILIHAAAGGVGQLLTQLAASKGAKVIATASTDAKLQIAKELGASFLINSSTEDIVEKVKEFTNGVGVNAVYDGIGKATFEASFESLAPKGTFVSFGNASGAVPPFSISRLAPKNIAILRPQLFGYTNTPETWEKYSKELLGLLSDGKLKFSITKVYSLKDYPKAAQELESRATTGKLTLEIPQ

B1: 174 (ssDNA)
DNA: ACTTGACAGCAATATATAAACAGAAGGAAGCTGCCCTGTCTTAAACCTTTTTTTTTATCA
B2: 229 (ssDNA)
DNA: GAATACTGCTGATAGCCTAACGTTCATGATCAAAATTTAACTGTTCTAACCCCT
B3: 288 (ssDNA)
DNA: ACCCGCTTTTTGGATGATTATGCATTGTCTCCACATTGTATGCTTCCAAGATTCTGGTGG

Assays:
[1] = molecular target: recombinant Pichia pastoris zeta crystallin (PpZTA1) (Pichia pastoris); test: SEC
[2] = molecular target: T1, PpZTA1 (zeta crystallin / quinone …); test: EMSA

Molecule | stoichiometry N [1] | Kd [2]
recombinant Pichia pastoris zeta crystallin (PpZTA1) (natural protein) | 2 | –
B1 | – | 0.1 nM
B2 | – | 0.2 nM
B3 | – | 0.9 nM
